Values joined by “and” are separate entries in the source; they are usually repeats but may differ in a detail not shown here. Identical values can stand only once.

Usually Kd stands for the free concentration of one partner at which half of the binding sites on the other are occupied at equilibrium, for simple one-to-one binding. Low readings indicate higher affinity, high ones lower affinity.

Experiment [1] addresses SRP (Ffh bound to 4.5 S RNA) with DACM-labeled Ffh Cys235 (UniProt P0AGD7). Description: FRET or BRET.
Experiment [2] addresses acrylodan-labeled FtsY Cys356 (UniProt P10121). The experiment is described as follows: other fluorescence titration.

Consider “BODIPY-FL-labeled FtsY Cys487 (full-length FtsY) (from UniProt P10121 1-497) (receptor)”, for which, in experiment [1], the Kd was found to be 162 nM and the fold destabilisation of the early complex by SecYEG (against no SecYEG) is > 15 fold. For “Signal recognition particle (SRP; Ffh bound to 4.5 S RNA) (from UniProt P0AGD7 1-453) (complex)”, the fold stabilisation of the activated complex by SecYEG (against no SecYEG) in experiment [2] was 2 fold and 4 fold.
